For data set [1], the system named is patients with a myeloproliferative disorder. Conditions: cited from earlier work; for toxicity: patients with splenomegaly.
Another data set deals with T1, human TGFβ2 (Homo sapiens, UniProt P61812).
T1 construct: purchased PeproTech
T1 sequence (P61812 303-414 limits assumed): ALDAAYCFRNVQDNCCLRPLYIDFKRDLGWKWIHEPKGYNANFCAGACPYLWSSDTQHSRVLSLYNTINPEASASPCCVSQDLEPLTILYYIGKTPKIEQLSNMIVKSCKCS
Nature of the data set: Reporter gene assay in A549 cells (pGL3(CAGA)12), inhibition of TGFβ2 activity. In kind it is cell-based. The note with it: Summary of Ligand Selectivity; cell names the ligand in this class. From the text:
(§1) A reporter gene assay in A549 cells was used to determine the ability of hTβRII-hFc variants to inhibit activity of TGFβ1, TGFβ2, and TGFβ3. This assay is based on a human lung carcinoma cell line transfected with a pGL3(CAGA)12 reporter plasmid (Dennler et al., 1998, EMBO 17: 3091-3100) as well as a Renilla reporter plasmid (pRLCMV) to control for transfection efficiency. The CAGA motif is present in the promoters of TGFβ-responsive genes (for example, PAI-1), so this vector is of general use for factors signaling through SMAD2 and SMAD3.
(§2) On the first day of the assay, A549 cells (ATCC®: CCL-185™) were distributed in 48-well plates at 6.5×10^4 cells per well. On the second day, a solution containing 10 μg pGL3(CAGA)12, 100 ng pRLCMV, 30 μl X-tremeGENE 9 (Roche Applied Science), and 970 μl OptiMEM (Invitrogen) was preincubated for 30 min, then added to Eagle's minimum essential medium (EMEM, ATCC®) supplemented with 0.1% BSA, which was applied to the plated cells (500 μl/well) for incubation overnight at […]. On the third day, medium was removed, and cells were incubated overnight at 37° C. with a mixture of ligands and inhibitors prepared as described below.
(§3) Serial dilutions of test articles were made in a 48-well plate in a 200 μl volume of assay buffer (EMEM+0.1% BSA). An equal volume of assay buffer containing the test ligand was added to obtain a final ligand concentration equal to the EC50 determined previously. Human TGFβ 1, human TGFβ2, and human TGFβ3 were obtained from PeproTech. Test solutions were incubated at 37° C. for 30 minutes, then 250 μl of the mixture was added to all wells. Each concentration of test article was determined in duplicate. After incubation with test solutions overnight, cells were rinsed with phosphate-buffered saline, then lysed with passive lysis buffer (Promega E1941) and stored overnight at −70° C. On the fourth and final day, plates were warmed to room temperature with gentle shaking. Cell lysates were transferred in duplicate to a chemiluminescence plate (96-well) and analyzed in a luminometer with reagents from a Dual-Luciferase Reporter Assay system (Promega E1980) to determine normalized luciferase activity.
On the technique in general: Reporter assays use an easily measured gene product as a stand-in for the process of interest.

The next data set concerns the target T2, human TGFβ1 (Homo sapiens, UniProt P01137).
T2 construct: purchased PeproTech
Nature of the data set: Reporter gene assay in A549 cells (pGL3(CAGA)12), inhibition of TGFβ1 activity. In kind it is cell-based. The note with it: for inhibition of TGFβ1 activity / signaling (in words): cell-based reporter assay; for IC50: A549 reporter gene assay, hTGFβ1 640 pg/ml.
From the text: as §1, §2, §3

In another data set the target is T3, human TGFβ3 (Homo sapiens, UniProt P10600).
T3 construct: purchased PeproTech
T3 sequence (P10600 301-412 limits assumed): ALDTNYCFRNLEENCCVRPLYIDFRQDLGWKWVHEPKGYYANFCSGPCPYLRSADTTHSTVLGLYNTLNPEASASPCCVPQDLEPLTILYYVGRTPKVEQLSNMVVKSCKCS
Kind of data set: Reporter gene assay in A549 cells (pGL3(CAGA)12), inhibition of TGFβ3 activity. In kind it is cell-based. Conditions: for inhibition of TGFβ3 activity / signaling (in words): cell-based reporter assay.
From the text: A reporter gene assay in A549 cells was used to determine the ability of hTβRII-hFc variants to inhibit activity of TGFβ1, TGFβ2, and TGFβ3. This assay is based on a human lung carcinoma cell line transfected with a pGL3(CAGA)12 reporter plasmid (Dennler et al., 1998, EMBO 17: 3091-3100) as well as a Renilla reporter plasmid (pRLCMV) to control for transfection efficiency.
as §2
as §3, with “An equal volume of assay buffer containing the test ligand was added to obtain a final ligand concentration equal to the EC50 determined previously.” left out

Setting [2] is: Summary of Ligand Selectivity, cell names the ligand in this class.

T2 sequence (P01137 279-390 limits assumed): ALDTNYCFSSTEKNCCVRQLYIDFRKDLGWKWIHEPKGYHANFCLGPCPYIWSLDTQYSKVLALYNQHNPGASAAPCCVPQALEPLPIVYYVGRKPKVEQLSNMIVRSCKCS

With `NC(=O)NO` [HC, Hydroxycarbamide], in data set [1] (patients treated with HC), the “patients with reductions in spleen size from 25%-50%” value was “up to 35%”. For the same molecule, the toxicity result in data set [1] is recorded as “exacerbate cytopenias”.

On to `Nc1nc(Cl)nc2c1ncn2[C@H]1C[C@H](O)[C@@H](CO)O1` [cladribine], for which, in data set [1], the toxicity entry was “severe but reversible cytopenias”. Also, the “spleen responses / response rate” value in data set [1] (symptomatic splenomegaly) is listed as “up to 50%”.

B1: TβRIIshort(29-159)-G2Fc: N-terminally truncated (6 aa) short-isoform ECD fused to IgG2 Fc; SEQ ID NO: 29 (unprocessed), 55 (mature) (protein)
chain: QKSVNNDMIVTDNNGAVKFPQLCKFCDVRFSTCDNQKSCMSNCSITSICEKPQEVCVAVWRKNDENITLETVCHDPKLPYHDFILEDAASPKCIMKEKKKPGETFFMCSCSSDECNDNIIFSEEYNTSNPDTGGGVECPPCPAPPVAGPSVFLFPPKPKDTLMISRTPEVTCVVVDVSHEDPEVQFNWYVDGVEVHNAKTKPREEQFNSTFRVVSVLTVVHQDWLNGKEYKCKVSNKGLPAPIEKTISKTKGQPREPQVYTLPPSREEMTKNQVSLTCLVKGFYPSDIAVEWESNGQPENNYKTTPPMLDSDGSFFLYSKLTVDKSRWQQGNVFSCSVMHEALHNHYTQKSLSLSPGK
Take B1: the “Degree of Ligand Inhibition: Negligible (ligand TGFβ2)” value with human TGFβ2 is listed as “TGFβ2”. In the data set with human TGFβ1 (setting [2]), the “Degree of Ligand Inhibition: Moderate (ligand TGFβ1)” value is “TGFβ1”. Besides, the “inhibition of TGFβ1 activity / signaling (in words)” value with human TGFβ1 was “maintains some TGFβ1 inhibitor effects”. In the data set with human TGFβ3 (setting [2]), the “Degree of Ligand Inhibition: Negligible (ligand TGFβ3)” value is on record as “TGFβ3”. Further, the “inhibition of TGFβ3 activity / signaling (in words)” value with human TGFβ3 is given as “greatly diminished ability to inhibit”.

B2: TβRIIshort(23-153)-G2Fc: C-terminally truncated (6 aa) short-isoform ECD fused to IgG2 Fc; SEQ ID NO: 37 (unprocessed), 59 (mature) (protein)
chain: TIPPHVQKSVNNDMIVTDNNGAVKFPQLCKFCDVRFSTCDNQKSCMSNCSITSICEKPQEVCVAVWRKNDENITLETVCHDPKLPYHDFILEDAASPKCIMKEKKKPGETFFMCSCSSDECNDNIIFSEEYTGGGVECPPCPAPPVAGPSVFLFPPKPKDTLMISRTPEVTCVVVDVSHEDPEVQFNWYVDGVEVHNAKTKPREEQFNSTFRVVSVLTVVHQDWLNGKEYKCKVSNKGLPAPIEKTISKTKGQPREPQVYTLPPSREEMTKNQVSLTCLVKGFYPSDIAVEWESNGQPENNYKTTPPMLDSDGSFFLYSKLTVDKSRWQQGNVFSCSVMHEALHNHYTQKSLSLSPGK
Turning to B2, the IC50 amounted to 2.62 nM with human TGFβ1 (third experiment (C-terminal truncation, N70D)) and 0.14 nM in the data set with human TGFβ3 (A549 reporter gene assay, hTGFβ3 270 pg/ml, third experiment (C-terminal truncation, N70D)).

B3: TβRIIshort(23-159/D110K)-G2Fc: full-length short-isoform ECD with D110K substitution fused to IgG2 Fc; SEQ ID NO: 25 (unprocessed), 53 (mature) (protein)
chain: TIPPHVQKSVNNDMIVTDNNGAVKFPQLCKFCDVRFSTCDNQKSCMSNCSITSICEKPQEVCVAVWRKNDENITLETVCHDPKLPYHKFILEDAASPKCIMKEKKKPGETFFMCSCSSDECNDNIIFSEEYNTSNPDTGGGVECPPCPAPPVAGPSVFLFPPKPKDTLMISRTPEVTCVVVDVSHEDPEVQFNWYVDGVEVHNAKTKPREEQFNSTFRVVSVLTVVHQDWLNGKEYKCKVSNKGLPAPIEKTISKTKGQPREPQVYTLPPSREEMTKNQVSLTCLVKGFYPSDIAVEWESNGQPENNYKTTPPMLDSDGSFFLYSKLTVDKSRWQQGNVFSCSVMHEALHNHYTQKSLSLSPGK
Regarding B3, the “Degree of Ligand Inhibition: Negligible (ligand TGFβ2)” value with human TGFβ2 was “TGFβ2”. The IC50 with human TGFβ1 (first experiment (D110K)) was greater than 73.6 nM. For the same molecule, the “inhibition of TGFβ1 activity / signaling (in words)” value with human TGFβ1 is “loss of inhibition”. Further, the “Degree of Ligand Inhibition: Moderate (ligand TGFβ3)” value with human TGFβ3 (setting [2]) is “TGFβ3”. In the data set with human TGFβ3, the “inhibition of TGFβ3 activity / signaling (in words)” value is reported as “intermediate inhibition”.

For orientation: IC50 means the concentration needed to halve the response being measured. A high value points to lower potency.

The values above are taken from patent publication US20250042963A1, “METHODS FOR TREATING MYELOPROLIFERATIVE DISORDERS” (Acceleron Pharma Inc., priority 2015, published 2025).
